Test results: US20230059489A1 (Pfizer, published 2023)

T1: mouse FLT3 (mFlt3) (mouse (printed as mFlt3), UniProt Q00342 28-544, limits assumed)
T1 construct: Construct not described
T1 sequence (looked up): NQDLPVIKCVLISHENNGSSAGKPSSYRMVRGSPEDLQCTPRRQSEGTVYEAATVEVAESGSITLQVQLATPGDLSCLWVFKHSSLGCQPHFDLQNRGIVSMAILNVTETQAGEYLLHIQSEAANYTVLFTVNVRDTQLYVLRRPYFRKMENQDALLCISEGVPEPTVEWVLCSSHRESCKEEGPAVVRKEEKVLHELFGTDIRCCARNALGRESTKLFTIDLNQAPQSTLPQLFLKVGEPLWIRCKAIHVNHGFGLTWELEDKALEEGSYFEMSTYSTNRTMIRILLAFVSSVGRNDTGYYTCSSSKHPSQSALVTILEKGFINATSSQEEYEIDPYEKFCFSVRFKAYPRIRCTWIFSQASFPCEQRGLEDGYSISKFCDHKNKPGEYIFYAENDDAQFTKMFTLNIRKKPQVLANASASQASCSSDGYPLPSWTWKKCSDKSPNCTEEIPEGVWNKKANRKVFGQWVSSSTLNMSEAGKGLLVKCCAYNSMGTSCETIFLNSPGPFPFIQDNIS

T2: human FLT3 (hFLT3) (human, UniProt P36888 27-543)
T2 construct: also called huFlt3; Fms-Like Tyrosine Kinase 3
T2 sequence (looked up): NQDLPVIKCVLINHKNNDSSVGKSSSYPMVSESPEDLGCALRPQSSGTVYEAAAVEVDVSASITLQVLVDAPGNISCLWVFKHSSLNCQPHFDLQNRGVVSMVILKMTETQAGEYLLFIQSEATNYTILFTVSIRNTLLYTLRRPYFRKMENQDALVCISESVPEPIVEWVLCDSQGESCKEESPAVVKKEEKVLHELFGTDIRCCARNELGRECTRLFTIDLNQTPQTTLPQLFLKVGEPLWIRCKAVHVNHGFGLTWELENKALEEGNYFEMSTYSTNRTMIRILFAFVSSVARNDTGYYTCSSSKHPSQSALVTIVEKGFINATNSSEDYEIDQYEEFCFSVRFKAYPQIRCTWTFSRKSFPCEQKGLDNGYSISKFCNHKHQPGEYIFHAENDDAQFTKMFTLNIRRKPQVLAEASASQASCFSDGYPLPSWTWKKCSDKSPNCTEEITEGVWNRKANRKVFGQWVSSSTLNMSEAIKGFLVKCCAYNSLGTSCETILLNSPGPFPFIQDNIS


The binders below were run against T1, mouse FLT3 (mFlt3) (assay: SPR, Table 6, IgG format, mFlt3 column; set-up for mFlt3 not described).

| Kd [nM] | Binder |
| --- | --- |
| 36.1 | P4F6 (IgG format) (antibody, V domains shown, IgG format, captured by anti-human Fc) VH: QVQLVQSGAEVKKPGSSVKVSCKASGGTFGSYGISWVRQAPGQGLEWMGGIIPIFGTVTYAQKFQGRVTITADESTRTAYMELSSLRSEDTAVYYCARDSWSGATGASDTWGQGTLVTVSS VL: not shown |

Each binder was assayed against T2, human FLT3 (hFLT3) (assay: SPR (Biacore T200), 37 C; IgG captured on anti-human Fc, hFLT3 as analyte).
Method: All experiments were performed on a Biacore T200 surface Plasmon resonance biosensor (GE Lifesciences, Piscataway N.J.).
The sensor chip preparation was performed at 25° C. with a running buffer of 10 mM HEPES, 150 mM NaCl, 0.05% (v/v) Tween-20, pH 7.4. An anti-human Fc sensor chip was made by activating all flow cells of a Biacore CM4 sensor chip with a 1:1 (v/v) mixture of 400 mM EDC and 100 mM NHS for 7 minutes, at a flow rate of 10 μL/min. An anti-human Fc reagent (Goat Anti-Human IgG Fc, Southern Biotech Catalog #2081-01) was diluted to 30 μg/mL in 10 mM Sodium Acetate pH 4.5 and injected on all flow cells for 7 minutes at 20 μL/min. All flow cells were blocked with 100 mM ethylenediamine in 150 mM Borate buffer pH 8.5 for 7 minutes at 10 μL/min.
The experiments were performed at 37° C. using a running buffer of 10 mM HEPES, 150 mM NaCl, 0.05% (v/v) Tween-20, pH 7.4, 1 mg/mL BSA. FLT3 antibodies were captured from undiluted supernatants onto downstream flow cells (flow cells 2, 3 and 4) at a flow rate of 10 μL/min for 1 minute. Different antibodies were captured on each flow cell. Flow cell 1 was used as a reference surface. Following capture of FLT3 antibodies, analyte (buffer, hFLT3) was injected at 30 μL/min on all flow cells for two minutes. After the analyte injection, dissociation was monitored for 10 minutes followed by regeneration of all flow cells with three 1-minute injections of 75 mM Phosphoric Acid. For each captured FLT3 antibody, the following analyte injections were performed: buffer, 11 nM hFLT3, 33 nM hFLT3, 100 nM hFLT3 and 300 nM hFLT3. Buffer cycles were collected for each captured FLT3 antibody for double-referencing purposes (double-referencing as described in Myszka, D. G. Improving biosensor analysis. J. Mol. Recognit. 12, 279-284 (1999)). The double-referenced sensorgrams were fit globally to a simple 1:1 Langmuir with mass transport binding model.

| Kd [nM] | koff [s⁻¹] | kon [M⁻¹ s⁻¹] | t1/2 [min] | Binder |
| --- | --- | --- | --- | --- |
| 64 | 0.006 | 95000 | 1.9 | P3A1 (IgG format) (antibody, V domains shown, IgG format, captured by anti-human Fc) VH: QVQLVQSGAEVKKPGSSVKVSCKASGGTFSSYDISWVRQAPGQGLEWMGGIIPVSGRANYAQKFQGRVTITTDKSTSTAYMELSSLRSEDTAVYYCARVRPTYWPLDYWGQGTLVTVSS VL: not shown |
| 84 | 0.009 | 110000 | 1.3 | P12B6 (IgG format) (antibody, V domains shown, IgG format, captured by anti-human Fc) VH: QVQLVQSGAEVKKPGSSVKVSCKASGGTFMSYAISWVRQAPGQGLEWMGGIIPIFGIANYAQKFQGRVTITADKSTSTAYMELSSLRSEDTAVYYCARETLIYPIPFELWGQGTLVTVSS VL: EIVLTQSPGTLSLSPGERATLSCRASQIVSSSYLAWYQQKPGQAPRLLIYGASSRASGIPDRFSGSGSGTDFTLTISRLEPEDFAVYYCQQYGGSPYTFGQGTKVEIK |
| 106 | 0.019 | 180000 | 0.6 | P3E10 (IgG format) (antibody, V domains shown, IgG format, captured by anti-human Fc) VH: QVQLVQSGAEVKKPGSSVKVSCKASGGTFSSYAIQWVRQAPGQGLEWMGGIVGSWGLANYAQKFQGRVTITTDKSTSTAYMELSSLRSEDTAVYYCATSAFGELASWGQGTLVTVSS VL: EIVLTQSPGTLSLSPGERATLSCRASQSVPSSQLAWYQQKPGQAPRLLIYDASSRATGIPDRFSGSGSGTDFTLTISRLEPEDFAVYYCQQYGSSPLTFGQGTKVEIK |
| 32 | 0.0058 | 180000 | 2 | P1B4 (IgG format) (antibody, V domains shown, IgG format, captured by anti-human Fc) VH: QVQLVQSGAEVKKPGSSVKVSCKASGGVFSRYALSWVRQAPGQGLEWMGGIIPMLGFANYAQKFQGRVTITADESTSTAYMELSSLRSEDTAVYYCATLDFGALDYWGQGTLVTVSS VL: EIVLTQSPGTLSLSPGERATLSCRASQSVPNEQLAWYQQKPGQAPRLLIYDASSRATGIPDRFSGSGSGTDFTLTISRLEPEDFAVYYCQQYGSPPLTFGQGTKVEIK |
| 2.5 | 0.00023 | 93000 | 51 | P8B6 (IgG format) (antibody, V domains shown, IgG format, captured by anti-human Fc) VH: QVQLVQSGAEVKKPGSSVKVSCKASGGTFSSYAVSWVRQAPGQGLEWMGGIIPIFGIANYAQKFQGRVTITADTSTSTAYMELSSLRSEDTAVYYCAIEGIGGDLRYDGYDAWGQGTLVTVSS VL: EIVLTQSPGTLSLSPGERATLSCRASQSVSHSYLAWYQQKPGQAPRLLIYGASFRAAGIPDRFSGSGSGTDFTLTISRLEPEDFAVYYCQQYGSDPYTFGQGTKVEIK |
| 45 | 0.0055 | 120000 | 2.1 | P1B11 (IgG format) (antibody, V domains shown, IgG format, captured by anti-human Fc) VH: QVQLVQSGAEVKKPGSSVKVSCKASGGTFRSFDISWVRQAPGQGLEWMGRIIPILGYANYAQKFQGRVTITADESTSTAYMELSSLRSEDTAVYYCASDLGAPWAGYPFDPWGQGTLVTVSS VL: EIVLTQSPGTLSLSPGERATLSCRASQSVSSSELAWYQQKPGQAPRLLIYDASSRATGIPDRFSGSGSGTDFTLTISRLEPEDFAVYYCQQYDSSPLTFGQGTKVEIK |
| 0.19 | 0.000347 | 1.78e+06 | 33 | P1A5 (IgG format) (antibody, V domains shown, IgG format, captured by anti-human Fc; the entry printed as P1A5 is used) VH: QVQLVQSGAEVKKPGSSVKVSCKASGGVFSRYALSWVRQAPGQGLEWMGGIIPMLGFANYAQKFQGRVTITADESTSTAYMELSSLRSEDTAVYYCATLDFGALDYWGQGTLVTVSS VL: EIVLTQSPGTLSLSPGERATLSCRASQAVDSSDLAWYQQKPGQAPRLLIYDAYTRPSGIPDRFSGSGSGTDFTLTISRLEPEDFAVYYCQQYGSSPLTFGGGTKLEIK |
| 38 | 0.0055 | 140000 | 2.1 | P15F7 (IgG format) (antibody, V domains shown, IgG format, captured by anti-human Fc) VH: EVQLLESGGGLVQPGGSLRLSCAASGFTFNNYAMNWVRQAPGKGLEWVSVISGSGGTTYYADSVKGRFTISRDNSKNTLYLQMNSLRAEDTAVYYCASGIWDLRYWGQGTLVTVSS VL: DIQMTQSPSSLSASVGDRVTITCRASQSISTYLNWYQQKPGKAPKLLIYAASNLQSGVPSRFSGSGSGTDFTLTISSLQPEDFATYYCQQSYSIPLTFGQGTKVEIK |
| 8 | 0.0011 | 140000 | 10.7 | P14G2 (IgG format) (antibody, V domains shown, IgG format, captured by anti-human Fc) VH: EVQLLESGGGLVQPGGSLRLSCAASGFTFSNYVMNWVRQAPGKGLEWVSAISGSGATTYYADSVKGRFTISRDNSKNTLYLQMNSLRAEDTAVYYCVSGLWAGGIWGQGTLVTVSS VL: DIQMTQSPSSLSASVGDRVTITCRASQSISSYLNWYQQKPGKAPKLLIYDASDLQRGVPSRFSGSGSGTDFTLTISSLQPEDFATYYCQQSYNTPWTFGQGTKVEIK |
| 25 | 0.0035 | 140000 | 3.3 | P4F6 (IgG format) (antibody, V domains shown, IgG format, captured by anti-human Fc) VH: QVQLVQSGAEVKKPGSSVKVSCKASGGTFGSYGISWVRQAPGQGLEWMGGIIPIFGTVTYAQKFQGRVTITADESTRTAYMELSSLRSEDTAVYYCARDSWSGATGASDTWGQGTLVTVSS VL: not shown |
| 0.24 | 0.000152 | 636000 | 76 | P5F7 (IgG format) (antibody, V domains shown, IgG format, captured by anti-human Fc; the VLs differ at the N-terminus; the first entry is used) VH: EVQLLESGGGLVQPGGSLRLSCAASGFTFSSYAMNWVRQAPGKGLEWVSSISGGGRSTYYADSVKGRFTISRDNSKNTLYLQMNSLRAEDTAVYYCARDLSPSDVGWGYGFDIWGQGTLVTVSS VL: EIVLTQSPATLSLSPGERATLSCRASQSVSSNLAWYQQKPGQAPRLLIYDTFTRATGIPARFSGSGSGTDFTLTISRLEPEDFAVYYCQQYGSSPPTFGQGTRLEIK |
| 233 | 0.0144 | 61800 | 1 | P4H11 (IgG format) (antibody, V domains shown, IgG format, captured by anti-human Fc) VH: EVQLLESGGGLVQPGGSLRLSCAASGFTFSSYAMNWVRQAPGKGLEWVSSISGGGRSTYYADSVKGRFTISRDNSKNTLYLQMNSLRAEDTAVYYCARDLSPSDVGWGYGFDIWGQGTLVTVSS VL: EIVLTQSPGTLSLSPGERATLSCRASQSVSNTYLAWYQQKPGQAPRLLIYDTSSRATGIPDRFSGSGSGTDFTLTISRLEPEDFAVYYCQQYGSSLTFGQGTKVEIK |
| 127 | 0.023 | 180000 | 0.5 | P9F1 (IgG format) (antibody, V domains shown, IgG format, captured by anti-human Fc) VH: EVQLLESGGGLVQPGGSLRLSCAASGFIFSSFAMSWVRQAPGKGLEWVSDISGSGASTYYADSVKGRFTISRDNSKNTLYLQMNSLRAEDTAVYYCASASGGSGSYWPYMDPWGQGTLVTVSS VL: QSVLTQPPSASGTPGQRVTISCSGSGSNIGSNYVYWYQQLPGTAPKLLIYRNNQRPSGVPDRFSGSKSGTSASLAISGLRSEDEADYYCAAWDGSLSRPVFGTGTKLTVL |
